Measured values: patent US10260060B2, “Genetically modified phenylpyruvate decarboxylase, processes to prepare, and uses thereof” (Dow Global Technologies LLC, priority 2014, dated 2019)

Assays:
Type in all cases: biochemical, Azospirillum brasilense
[1] = substrate: CCCCCCCC(=O)C(=O)O; test: HTP AbPPDC coupled enzyme assay (ADH6/NADPH), 2-ketoacid decarboxylation kinetics, F532V; conditions: other: pH 6.8, 30° C, 2-ketoacid 0 to 4 mM, Hill equation, mean ± standard error
Method: (§1) The evaluation of the AbPPDC variants is performed in two steps using the high-throughput enzyme assay described hereinbelow. Initially, all the variants are tested for activity against a single high concentration (2 mM) of 2-KH and 2-KN (as shown in Table 1). Following the initial evaluation, detailed kinetic analysis is performed on a select number of variants to determine the maximal rate (kcat), substrate concentration yielding half maximal rate (K0.5, equivalent of KM for enzymes following Michaelis-Menten kinetics), and the catalytic efficiency of the enzyme (kcat/K0.5) against 2-KO and 2-KN (as shown in Table 2). AbPPDC variants, having higher specificity (higher kcat/K0.5) for 2-KN, will be efficient in producing octanal and chemicals derived from it inside the cells.
(§2) To evaluate the substrate specificity of the wild type AbPPDC and its variants listed in Table 1, genes of all the proteins are expressed in E. coli cells separately and the protein products are isolated from the cells. The gene sequence of the Azospirillum brasilense phenylpyruvate decarboxylase (GenBank: Accession no. L26240) is downloaded from the NCBI database. Codons of 13 additional amino acids that include six (6) histidines (his) are added upstream of the Met-1 codon of the AbPPDC gene sequence. Such a modification allows expression of a Histidine-tagged AbPPDC having 13 additional amino acids on the N-terminus. The additional amino acids are attached as an aid for purifying the protein in a single step using Ni-NTA chromatography. The entire AbPPDC sequence with 13 additional amino acids (SEQ ID 2) is chemically synthesized and then cloned into the pRSFDuet-1 vector (EMD Biosciences) downstream of the T7 polymerase promoter by Synthetic Genomics, Inc. (San Diego, Calif.). The final vector is sequenced by Synthetic Genomics, Inc. before shipping.
(§3) Genes of the AbPPDC variants listed in Table 1 are either chemically synthesized or generated using New England Biolab's Q5 Site-directed Mutagenesis Kit (cat. no. E0554S) and cloned into the pRSFDuet-1 vector. The pRSFDuet-1 vector containing AbPPDC or the AbPPDC variant gene is transformed into E. coli, AbPPDC or its variant, then expressed and eventually purified, as described below.
(§4) A high-throughput AbPPDC coupled enzyme assay is developed for evaluating the substrate specificity of AbPPDC variants. The assay involves reducing the aldehyde produced from AbPPDC mediated 2-ketoacid decarboxylation, using an alcohol dehydrogenase (ADH6, GenBank: Accession No. NP 014051.3). The initial velocities of the AbPPDC catalyzed reactions are determined from the rates of oxidation of reduced nicotinamide adenine dinucleotide phosphate (NADPH) occurring during the ADH6 catalyzed reduction of aldehyde.
(§5) The HTP screening assay involves incubating 2 mM 2-KH or 2 mM 2-KN with 0.5 mM thiamine diphosphate, 0.35 mM NADPH, 4.7 micrograms (μg) of yeast ADH6 (GenBank: Accession No. NP 014051.3) and 0.3 milligrams per milliliter (mg/mL) bovine serum albumin (BSA) in AbPPDC assay buffer (50 mM 3-(N-morpholino)propanesulfonic acid, pH 6.8, containing 2.5 mM magnesium chloride (MgCl2)) at 30° C. The reaction is started by addition at 30° C. of working enzyme stock containing from 0.5 μg to 3.5 μg of AbPPDC variant diluted in AbPPDC assay buffer containing 1 mg/mL BSA. The plate containing the 200 μL of reaction mixture is centrifuged at 2500×g for 15 sec and the absorbance change of the reaction mixture followed spectrophotometrically at 340 nm on a BioTek™ plate reader, pre-equilibrated at 30° C. Initial velocity of the enzyme reaction is calculated using the rate of NADPH consumption at 340 nm and the extinction coefficient of NADPH (6.22 mM^−1 cm^−1). The activity of all the variants is normalized with the amount of enzyme present in the reaction mixture and expressed as nanomoles per minute per milligram (nmol·min^−1·mg^−1). […]

[2] = substrate: CCCCCCC(=O)C(=O)O; test: as above; conditions: other: pH 6.8, 30° C, 2-ketoacid 0 to 4 mM, Hill equation, mean ± standard error
Method: as §1, §2, §3, §4, §5

[3] = substrate: CCCCCCCC(=O)C(=O)O; test: HTP AbPPDC coupled enzyme assay (ADH6/NADPH), 2-ketoacid decarboxylation kinetics, F532L; conditions: other: pH 6.8, 30° C, 2-ketoacid 0 to 4 mM, Hill equation, mean ± standard error
Method: as §1, §2, §3, §4, §5

[4] = substrate: CCCCCCC(=O)C(=O)O; test: as above; conditions: other: pH 6.8, 30° C, 2-ketoacid 0 to 4 mM, Hill equation, mean ± standard error
Method: as §1, §2, §3, §4, §5

[5] = substrate: CCCCCCCC(=O)C(=O)O; test: HTP AbPPDC coupled enzyme assay (ADH6/NADPH), 2-ketoacid decarboxylation kinetics, Q536G; conditions: other: pH 6.8, 30° C, 2-ketoacid 0 to 4 mM, Hill equation, mean ± standard error
Method: as §1, §2, §3, §4, §5

[6] = substrate: CCCCCCC(=O)C(=O)O; test: as above; conditions: other: pH 6.8, 30° C, 2-ketoacid 0 to 4 mM, Hill equation, mean ± standard error
Method: as §1, §2, §3, §4, §5

[7] = substrate: CCCCCCCC(=O)C(=O)O; test: HTP AbPPDC coupled enzyme assay (ADH6/NADPH), 2-ketoacid decarboxylation kinetics, Q536L; conditions: other: pH 6.8, 30° C, 2-ketoacid 0 to 4 mM, Michaelis-Menten equation, mean ± standard error
Method: as §1, §2, §3, §4, §5

[8] = substrate: CCCCCCC(=O)C(=O)O; test: as above; conditions: other: pH 6.8, 30° C, 2-ketoacid 0 to 4 mM, Michaelis-Menten equation, mean ± standard error
Method: as §1, §2, §3, §4, §5

[9] = substrate: CCCCCCCC(=O)C(=O)O; test: HTP AbPPDC coupled enzyme assay (ADH6/NADPH), 2-ketoacid decarboxylation kinetics, Q536A; conditions: other: pH 6.8, 30° C, 2-ketoacid 0 to 4 mM, Hill equation, mean ± standard error
Method: as §1, §2, §3, §4, §5

[10] = substrate: CCCCCCC(=O)C(=O)O; test: as above; conditions: other: pH 6.8, 30° C, 2-ketoacid 0 to 4 mM, Hill equation, mean ± standard error
Method: as §1, §2, §3, §4, §5

B1: Azospirillum brasilense phenylpyruvate decarboxylase (AbPPDC) variant F532V, SEQ ID 28 (Azospirillum brasilense; F532V) (protein)
chain: MKLAEALLRALKDRGAQAMFGIPGDFALPFFKVAEETQILPLHTLSHEPAVGFAADAAARYSSTLGVAAVTYGAGAFNMVNAVAGAYAEKSPVVVISGAPGTTEGNAGLLLHHQGRTLDTQFQVFKEITVAQARLDDPAKAPAEIARVLGAARALSRPVYLEIPRNMVNAEVEPVGDDPAWPVDRDALAACADEVLAAMRSATSPVLMVCVEVRRYGLEAKVAELAQRLGVPVVTTFMGRGLLADAPTPPLGTYIGVAGDAEITRLVEESDGLFLLGAILSDTNFAVSQRKIDLRKTIHAFDRAVTLGYHTYADIPLAGLVDALLEGLPPSDRTTRGKEPHAYPTGLQADGEPIAPMDIARAVNDRVRAGQEPLLIAADMGDCLFTAMDMIDAGLMAPGYYAGMGFGVPAGIGAQCVSGGKRILTVVGDGAFQMTGWELGNCRRLGIDPIVILFNNASWEMLRTFQPESAFNDLDDWRFADMAAGMGGDGVRVRTRAELKAALDKAFATRGRFQLIEAMIPRGVLSDTLARVVQGQKRLHAAPRE
notes: made in house; host or cells: E. coli BL21(DE3)
B1 was tested, and the K0.5 [1] was 0.89 ± 0.15 mM, the kcat [1] was 0.383 ± 0.033 s⁻¹ and the kcat/Km [1] was 450 ± 83 M⁻¹ s⁻¹. The K0.5 [2] was 2.0 ± 0.1 mM, the kcat [2] was 0.163 ± 0.0033 s⁻¹ and the kcat/Km [2] was 80 ± 3.3 M⁻¹ s⁻¹.

B2: Azospirillum brasilense phenylpyruvate decarboxylase (AbPPDC) variant F532L, SEQ ID 30 (Azospirillum brasilense; F532L) (protein)
chain: MKLAEALLRALKDRGAQAMFGIPGDFALPFFKVAEETQILPLHTLSHEPAVGFAADAAARYSSTLGVAAVTYGAGAFNMVNAVAGAYAEKSPVVVISGAPGTTEGNAGLLLHHQGRTLDTQFQVFKEITVAQARLDDPAKAPAEIARVLGAARALSRPVYLEIPRNMVNAEVEPVGDDPAWPVDRDALAACADEVLAAMRSATSPVLMVCVEVRRYGLEAKVAELAQRLGVPVVTTFMGRGLLADAPTPPLGTYIGVAGDAEITRLVEESDGLFLLGAILSDTNFAVSQRKIDLRKTIHAFDRAVTLGYHTYADIPLAGLVDALLEGLPPSDRTTRGKEPHAYPTGLQADGEPIAPMDIARAVNDRVRAGQEPLLIAADMGDCLFTAMDMIDAGLMAPGYYAGMGFGVPAGIGAQCVSGGKRILTVVGDGAFQMTGWELGNCRRLGIDPIVILFNNASWEMLRTFQPESAFNDLDDWRFADMAAGMGGDGVRVRTRAELKAALDKAFATRGRFQLIEAMIPRGVLSDTLARLVQGQKRLHAAPRE
notes: as for B1
Protein B2 has a K0.5 [3] of 0.94 ± 0.27 mM, a kcat [3] of 0.5 ± 0.083 s⁻¹ and a kcat/Km [3] of 583 ± 200 M⁻¹ s⁻¹. It also gave a K0.5 [4] of 1.6 ± 0.1 mM, a kcat [4] of 0.217 ± 0.005 s⁻¹ and a kcat/Km [4] of 137 ± 5 M⁻¹ s⁻¹.

B3: Azospirillum brasilense phenylpyruvate decarboxylase (AbPPDC) variant Q536G, SEQ ID 32 (Azospirillum brasilense; Q536G) (protein)
chain: MKLAEALLRALKDRGAQAMFGIPGDFALPFFKVAEETQILPLHTLSHEPAVGFAADAAARYSSTLGVAAVTYGAGAFNMVNAVAGAYAEKSPVVVISGAPGTTEGNAGLLLHHQGRTLDTQFQVFKEITVAQARLDDPAKAPAEIARVLGAARALSRPVYLEIPRNMVNAEVEPVGDDPAWPVDRDALAACADEVLAAMRSATSPVLMVCVEVRRYGLEAKVAELAQRLGVPVVTTFMGRGLLADAPTPPLGTYIGVAGDAEITRLVEESDGLFLLGAILSDTNFAVSQRKIDLRKTIHAFDRAVTLGYHTYADIPLAGLVDALLEGLPPSDRTTRGKEPHAYPTGLQADGEPIAPMDIARAVNDRVRAGQEPLLIAADMGDCLFTAMDMIDAGLMAPGYYAGMGFGVPAGIGAQCVSGGKRILTVVGDGAFQMTGWELGNCRRLGIDPIVILFNNASWEMLRTFQPESAFNDLDDWRFADMAAGMGGDGVRVRTRAELKAALDKAFATRGRFQLIEAMIPRGVLSDTLARFVQGGKRLHAAPRE
notes: as for B1
Protein B3 has a K0.5 [5] of 0.76 ± 0.02 mM, a kcat [5] of 0.35 ± 0 s⁻¹ and a kcat/Km [5] of 467 ± 17 M⁻¹ s⁻¹. The K0.5 [6] was 1.9 ± 0.2 mM, the kcat [6] was 0.183 ± 0.013 s⁻¹ and the kcat/Km [6] was 96.7 ± 10 M⁻¹ s⁻¹.

B4: Azospirillum brasilense phenylpyruvate decarboxylase (AbPPDC) variant Q536L, SEQ ID 36 (Azospirillum brasilense; Q536L) (protein)
chain: MKLAEALLRALKDRGAQAMFGIPGDFALPFFKVAEETQILPLHTLSHEPAVGFAADAAARYSSTLGVAAVTYGAGAFNMVNAVAGAYAEKSPVVVISGAPGTTEGNAGLLLHHQGRTLDTQFQVFKEITVAQARLDDPAKAPAEIARVLGAARALSRPVYLEIPRNMVNAEVEPVGDDPAWPVDRDALAACADEVLAAMRSATSPVLMVCVEVRRYGLEAKVAELAQRLGVPVVTTFMGRGLLADAPTPPLGTYIGVAGDAEITRLVEESDGLFLLGAILSDTNFAVSQRKIDLRKTIHAFDRAVTLGYHTYADIPLAGLVDALLEGLPPSDRTTRGKEPHAYPTGLQADGEPIAPMDIARAVNDRVRAGQEPLLIAADMGDCLFTAMDMIDAGLMAPGYYAGMGFGVPAGIGAQCVSGGKRILTVVGDGAFQMTGWELGNCRRLGIDPIVILFNNASWEMLRTFQPESAFNDLDDWRFADMAAGMGGDGVRVRTRAELKAALDKAFATRGRFQLIEAMIPRGVLSDTLARFVQGLKRLHAAPRE
notes: as for B1
B4 gave a K0.5 [7] of 1.51 ± 0.26 mM, a kcat [7] of 1.38 ± 0.1 s⁻¹ and a kcat/Km [7] of 933 ± 183 M⁻¹ s⁻¹. The K0.5 [8] was 1.34 ± 0.23 mM, the kcat [8] was 0.45 ± 0.0283 s⁻¹ and the kcat/Km [8] was 350 ± 67 M⁻¹ s⁻¹.

B5: Azospirillum brasilense phenylpyruvate decarboxylase (AbPPDC) variant Q536A, SEQ ID 34 (Azospirillum brasilense; Q536A) (protein)
chain: MKLAEALLRALKDRGAQAMFGIPGDFALPFFKVAEETQILPLHTLSHEPAVGFAADAAARYSSTLGVAAVTYGAGAFNMVNAVAGAYAEKSPVVVISGAPGTTEGNAGLLLHHQGRTLDTQFQVFKEITVAQARLDDPAKAPAEIARVLGAARALSRPVYLEIPRNMVNAEVEPVGDDPAWPVDRDALAACADEVLAAMRSATSPVLMVCVEVRRYGLEAKVAELAQRLGVPVVTTFMGRGLLADAPTPPLGTYIGVAGDAEITRLVEESDGLFLLGAILSDTNFAVSQRKIDLRKTIHAFDRAVTLGYHTYADIPLAGLVDALLEGLPPSDRTTRGKEPHAYPTGLQADGEPIAPMDIARAVNDRVRAGQEPLLIAADMGDCLFTAMDMIDAGLMAPGYYAGMGFGVPAGIGAQCVSGGKRILTVVGDGAFQMTGWELGNCRRLGIDPIVILFNNASWEMLRTFQPESAFNDLDDWRFADMAAGMGGDGVRVRTRAELKAALDKAFATRGRFQLIEAMIPRGVLSDTLARFVQGAKRLHAAPRE
notes: as for B1
B5 showed a K0.5 [9] of 0.52 ± 0.03 mM, a kcat [9] of 0.5 ± 0.017 s⁻¹ and a kcat/Km [9] of 967 ± 67 M⁻¹ s⁻¹. For the same protein, the K0.5 [10] was 0.72 ± 0.02 mM, the kcat [10] was 0.333 ± 0.0033 s⁻¹ and the kcat/Km [10] was 450 ± 17 M⁻¹ s⁻¹.
